Patent US20220259289A1 (Janssen / Centocor, published 2022)
Positions count from the first letter of the chain named.

B1: ISOP120GR5P1A10 (designed binder, not shown: small tags and cut ends)
chain: LPAPKNLVVSRVTEDSARLSWTAPDAAFDSFEIPYIEVETIGEAIWLHVPGSERSYDLTGLKPGTEYSVGINGVKGGHTSNPLSARFTT
notes: FN3 domain (Centyrin); tested as E. coli lysate
B2: ISOP120GR5P1C10 (designed binder, not shown: small tags and cut ends)
chain: B1 chain with A26G
notes: as for B1
B3: ISOP120GR5P1A11 (designed binder, not shown: small tags and cut ends)
chain: LPAPKNLVVSRVTEDSARLSWTAPDAAFDSFGIPYWEWTTEGEAIQLIVPGSERSYDLTGLKPATEYHVHIVGVKGGSFSEPLPADFTT
notes: as for B1
B4: ISOP120GR5P1B11 (designed binder, not shown: small tags and cut ends)
chain: LPAPKNLVVSRVTEDSARLSWTAPDAAFDSFNIKYWEANLYGEAIVLTVPGSERSYGLTGLKPGTEYRVHIRGVKGGINSFPLVAVFTT
notes: as for B1
B5: ISOP120GR5P1H11 (designed binder, not shown: small tags and cut ends)
chain: LPAPKNLVVSRVTEDSARLSWTAPDAAFDSFYIAYWEYWGNGEAIGLIVPGSERSYDLTGLKPGTEYHVHIVGVKGGAGSVPLWANFTT
notes: as for B1
B6: ISOP120HR5P1A6 (designed binder, not shown: small tags and cut ends)
chain: LPAPKNLVVSRVTEDSARLSWTAPDGAFDSFEIYYLEGGRGEAIVLTVPGSERSYDLTGLKPGTEYLVTIYGIKCGWASNPLSAIFTT
notes: as for B1
B7: ISOP120HR5P1H7 (designed binder, not shown: small tags and cut ends)
chain: LPAPKNLVVSRVTEDSARLSWTAPDAAFDSFDIYYGEPGNLGEAIVLTVPGSERSYDLTGLKPGTEYLVTIYGVKGGDYSSPLSAIFTT
notes: as for B1
B8: ISOP120ER5P1A8 (designed binder, not shown: small tags and cut ends)
chain: B7 chain with G36F, P38H, G39P, N40V, L41G, D78Y, Y79L, S81M
notes: as for B1
B9: ISOP120ER5P1A11 (designed binder, not shown: small tags and cut ends)
chain: B7 chain with D32E, G36K, P38L, G39R, N40A, L41E, D78S, Y79V, S81I
notes: as for B1
B10: ISOP120ER5P1B4 (designed binder, not shown: small tags and cut ends)
chain: B7 chain with D32S, Y34L, G39P, N40A, L68W, D78V, Y79F, S81H
notes: as for B1
B11: ISOP120ER5P1B6 (designed binder, not shown: small tags and cut ends)
chain: B7 chain with P38H, G39W, N40K, P50Q, D78Q, Y79W, S81F
notes: as for B1
B12: ISOP120ER5P1C6 (designed binder, not shown: small tags and cut ends)
chain: B7 chain with D32S, P38W, G39H, N40A, L68V, D78T, S81L, F87S
notes: as for B1
B13: ISOP120ER5P1H6 (designed binder, not shown: small tags and cut ends)
chain: B7 chain with D32S, P38W, G39H, N40A, L68V, D78T, S81L
notes: as for B1
B14: ISOP120FR5P1A11 (designed binder, not shown: small tags and cut ends)
chain: B7 chain with D32T, G36F, P38N, G39E, L41G, D78H, Y79W, S81R
notes: as for B1
B15: ISOP120FR5P1C2 (designed binder, not shown: small tags and cut ends)
chain: B7 chain with Y34N, G36F, P38Q, G39P, N40K, L41G, D78P, S81P
notes: as for B1
B16: ISOP120FR5P1F1 (designed binder, not shown: small tags and cut ends)
chain: B7 chain with D32T, G36F, P38N, G39E, L41G, G77C, Y79W, S81D
notes: as for B1
B17: ISOP120FR5P1H5 (designed binder, not shown: small tags and cut ends)
chain: LPAPKNLVVSRVTEDSARLSWTAPDAAFDSLQIYYFEWVVGGEAIVLTVPGSERSYDLTGLKLGTEYLVTIYGVKGGNFSDPLSAIFTT
notes: as for B1
B18: ISOP120HR5P1A3 (designed binder, not shown: small tags and cut ends)
chain: B7 chain with D32E, G36A, P38F, N40Y, L41Y, L68T, D78W, S81T
notes: as for B1
B19: ISOP120HR5P1A7 (designed binder, not shown: small tags and cut ends)
chain: B7 chain with D32E, G36A, G39R, N40Y, L41Y, L68T, D78Y
notes: as for B1
B20: ISOP120HR5P1B4 (designed binder, not shown: small tags and cut ends)
chain: B7 chain with D32S, P38Y, G39Y, L68V, D78G, S81N
notes: as for B1
B21: ISOP120HR5P1D7 (designed binder, not shown: small tags and cut ends)
chain: B7 chain with G36L, P38S, G39W, N40T, L41R, D78S, S81R
notes: as for B1
B22: ISOP120HR5P1D9 (designed binder, not shown: small tags and cut ends)
chain: B7 chain with G36R, P38L, G39D, N40F, L41Q, T70I, D78S, S81Y, P82T
notes: as for B1
B23: ISOP120HR5P1F9 (designed binder, not shown: small tags and cut ends)
chain: B7 chain with D32Y, G36R, P38H, G39W, N40T, L41I, D78A, S81N
notes: as for B1
B24: ISOP120HR5P1G4 (designed binder, not shown: small tags and cut ends)
chain: B7 chain with D32E, G36R, P38Y, G39W, N40Y, L41S, D78W, S81D
notes: as for B1
B25: ISOP120HR5P1G6 (designed binder, not shown: small tags and cut ends)
chain: B7 chain with D32E, G36F, P38L, G39R, N40L, L41G, D78L, Y79D, S81Q
notes: as for B1
B26: ISOP120HR5P1H4 (designed binder, not shown: small tags and cut ends)
chain: B7 chain with Y34L, G36L, G39Y, N40Q, L41E, D78Y, S81L
notes: as for B1
B27: ISOP120HR5P1H8 (designed binder, not shown: small tags and cut ends)
chain: B7 chain with G36Y, P38L, G39R, N40L, L41G, D78Y, S81G
notes: as for B1
B28: ISOP120AR5P1B5 (designed binder, not shown: small tags and cut ends)
chain: LPAPKNLVVSRVTEDYARLSWKYGEHIIWFDSFLIQYQESEKVGEAIVLTVPGSERSYDLTGLKPGTEYTVSIYGVKGQHDHDSNPLSAIFTT
notes: as for B1
B29: ISOP120FR5P1A6 (designed binder, not shown: small tags and cut ends)
chain: LPAPKNLVVSRVTEDSARLSWTAPDAAFDSFIIRYLEDISYGEAIVLTVPGSERSYDLTGLKPGTEYHVGIEGVKGGNVSFPLSAIFTT
notes: as for B1
B30: ISOP120ER5P1E5 (designed binder, not shown: small tags and cut ends)
chain: B29 chain with I32R, R34S, I39V, S40Y, E72H, N78I, V79D
notes: as for B1
B31: ISOP120ER5P1H4 (designed binder, not shown: small tags and cut ends)
chain: B29 chain with I32N, R34M, I39V, S40Q, Y41C, E72N, N78L, V79R
notes: as for B1
B32: ISOP120FR5P1H6 (designed binder, not shown: small tags and cut ends)
chain: B29 chain with I32G, R34P, S40E, Y41V, T59A, E72Y, N78E, V79Q
notes: as for B1
B33: ISOP120HR5P1B5 (designed binder, not shown: small tags and cut ends)
chain: B29 chain with L36I, D38E, I39G, S40Y, N78Y, V79Y, F81Y
notes: as for B1
B34: ISOP120HR5P1E7 (designed binder, not shown: small tags and cut ends)
chain: LPAPKNLVVSRVTEDSARLSWTAPDAAFDSFQIYYLEQLGYGEAIVLTVPGSERSYDLTGLKPGTEYLVTIYGVKVCEQSYPLSAIFTT
notes: as for B1
B35: ISOP120ER5P1F4 (designed binder, not shown: small tags and cut ends)
chain: B29 chain with I32V, L36I, I39T, S40V, Y41M, G70S, N78P, V79S, F81L
notes: as for B1
B36: ISOP120ER5P1A7 (designed binder, not shown: small tags and cut ends)
chain: LPAPKNLVVSRVTEDSARLSWTAPDAAFDSFNIGYYERIIPGEAIVLTVPGSERSYDLTGLKPGTEYSVLICGVKGGKGSIPLSAIFTT
notes: as for B1

What follows are binders tested against T1, recombinant biotinylated human CD137 protein (Fc-fusion protein, R&D Systems 838-4B) (human, UniProt Q07011 24-186, biotinylated (site not stated)) (assay: ELISA, bacterial lysate on plate-bound antigen, luminescence).
T1 construct: Bought Fc fusion; The ELISA used the same antigen as the panning; also called CD137-Fc; biotinylated CD137; not shown: Fc part of the bought fusion protein
Experimental: (§1) Streptavidin-coated Maxisorp plates (Nunc catalog 436110) were blocked for 1 h in Starting Block T20 (Pierce) and then coated with biotinylated CD137 (using same antigen as in panning) or negative controls (an unrelated Fc-fused recombinant protein and human serum albumin) for 1 h. Plates were rinsed with TBST and diluted lysate was applied to plates for 1 h. Following additional rinses, wells were treated with HRP-conjugated anti-Centyrin antibody (PAB25) for 1 h and then assayed with POD (Roche catalog 11582950001).

Row | Binder | ELISA CD137-Fc (RLU)
1 | B1 | 627000 RLU
2 | B2 | 502000 RLU
3 | B3 | 1.05e+06 RLU
4 | B4 | 875000 RLU
5 | B5 | 1.31e+06 RLU
6 | B6 | 1.29e+06 RLU
7 | B7 | 1.53e+06 RLU
8 | B8 | 1.9e+06 RLU
9 | B9 | 1.14e+06 RLU
10 | B10 | 499000 RLU
11 | B11 | 1.35e+06 RLU
12 | B12 | 495000 RLU
13 | B13 | 589000 RLU
14 | B14 | 920000 RLU
15 | B15 | 389000 RLU
16 | B16 | 1.23e+06 RLU
17 | B17 | 460000 RLU
18 | B18 | 1.08e+06 RLU

Row | Binder | ELISA CD137-Fc (RLU)
19 | B19 | 987000 RLU
20 | B20 | 1.19e+06 RLU
21 | B21 | 1.1e+06 RLU
22 | B22 | 405000 RLU
23 | B23 | 1.18e+06 RLU
24 | B24 | 347000 RLU
25 | B25 | 2.04e+06 RLU
26 | B26 | 630000 RLU
27 | B27 | 2.22e+06 RLU
28 | B28 | 501000 RLU
29 | B29 | 1.4e+06 RLU
30 | B30 | 413000 RLU
31 | B31 | 1.07e+06 RLU
32 | B32 | 357000 RLU
33 | B33 | 520000 RLU
34 | B34 | 363000 RLU
35 | B35 | 537000 RLU
36 | B36 | 1.11e+06 RLU

What follows are binders tested against T2, human serum albumin (human, UniProt P02768 25-609) in the same assay as above.
T2 construct: Negative control antigen of the screening ELISA; also called HSA
T2 sequence (P02768 25-609 limits assumed): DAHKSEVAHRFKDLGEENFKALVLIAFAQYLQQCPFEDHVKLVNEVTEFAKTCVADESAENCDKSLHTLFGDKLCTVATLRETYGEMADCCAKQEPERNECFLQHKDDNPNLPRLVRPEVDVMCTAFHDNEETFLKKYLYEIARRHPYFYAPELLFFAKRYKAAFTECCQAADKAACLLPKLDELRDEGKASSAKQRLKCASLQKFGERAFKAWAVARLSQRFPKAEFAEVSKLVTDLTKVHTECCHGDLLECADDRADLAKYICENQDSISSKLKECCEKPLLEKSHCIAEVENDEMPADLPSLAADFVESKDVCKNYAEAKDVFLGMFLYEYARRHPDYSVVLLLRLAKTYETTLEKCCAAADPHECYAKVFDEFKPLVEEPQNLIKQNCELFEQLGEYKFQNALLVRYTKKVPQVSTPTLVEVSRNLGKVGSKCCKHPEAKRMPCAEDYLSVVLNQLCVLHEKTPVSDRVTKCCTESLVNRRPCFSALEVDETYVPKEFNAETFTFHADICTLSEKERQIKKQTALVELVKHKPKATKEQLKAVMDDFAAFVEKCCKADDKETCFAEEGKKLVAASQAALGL
Experimental: as §1

Row | Binder | ELISA HSA (RLU)
37 | B1 | 400 RLU
38 | B2 | 480 RLU
39 | B3 | 320 RLU
40 | B4 | 160 RLU
41 | B5 | 320 RLU
42 | B6 | 400 RLU
43 | B7 | 480 RLU
44 | B8 | 320 RLU
45 | B9 | 320 RLU
46 | B10 | 400 RLU
47 | B11 | 400 RLU
48 | B12 | 400 RLU
49 | B13 | 480 RLU
50 | B14 | 480 RLU
51 | B15 | 400 RLU
52 | B16 | 640 RLU
53 | B17 | 560 RLU
54 | B18 | 240 RLU

Row | Binder | ELISA HSA (RLU)
55 | B19 | 480 RLU
56 | B20 | 320 RLU
57 | B21 | 320 RLU
58 | B22 | 400 RLU
59 | B23 | 400 RLU
60 | B24 | 480 RLU
61 | B25 | 320 RLU
62 | B26 | 320 RLU
63 | B27 | 400 RLU
64 | B28 | 320 RLU
65 | B29 | 320 RLU
66 | B30 | 320 RLU
67 | B31 | 560 RLU
68 | B32 | 320 RLU
69 | B33 | 240 RLU
70 | B34 | 480 RLU
71 | B35 | 400 RLU
72 | B36 | 400 RLU

Each binder was assayed against unrelated Fc-fused recombinant protein (negative control) in the same assay as above.

Row | Binder | ELISA Fc Control (RLU)
73 | B1 | 400 RLU
74 | B2 | 240 RLU
75 | B3 | 480 RLU
76 | B4 | 320 RLU
77 | B5 | 640 RLU
78 | B6 | 640 RLU
79 | B7 | 640 RLU
80 | B8 | 400 RLU
81 | B9 | 320 RLU
82 | B10 | 400 RLU
83 | B11 | 160 RLU
84 | B12 | 320 RLU
85 | B13 | 320 RLU
86 | B14 | 480 RLU
87 | B15 | 240 RLU
88 | B16 | 480 RLU
89 | B17 | 400 RLU
90 | B18 | 560 RLU

Row | Binder | ELISA Fc Control (RLU)
91 | B19 | 400 RLU
92 | B20 | 320 RLU
93 | B21 | 320 RLU
94 | B22 | 480 RLU
95 | B23 | 400 RLU
96 | B24 | 320 RLU
97 | B25 | 400 RLU
98 | B26 | 480 RLU
99 | B27 | 320 RLU
100 | B28 | 400 RLU
101 | B29 | 400 RLU
102 | B30 | 240 RLU
103 | B31 | 480 RLU
104 | B32 | 320 RLU
105 | B33 | 320 RLU
106 | B34 | 480 RLU
107 | B35 | 320 RLU
108 | B36 | 400 RLU
